The values below come from the DeepSol protein solubility set.

The data set in a line: soluble on expression in E. coli; label from the status in PepcDB or PDB records.
On to “ASMTTPCITILSGHFPKETIYARKTKELVEEYCSIHGYNFYYEESEPLETEEHALHFRRSWIIQQAAEKFPSTEWFLWLDSDVYVNPKNKNKPITSFIDLSDPNILYHTFHEAPWGSYPINTGVKFVHKDALEIEKIVWSLRNEAPWNTFPYEQKTVYEYVFPRIPGRYIVHDPYTLNCIVKAYPEHVKDALFVHMCGTSRAERDEHMEMVAT”, for which the “soluble on expression in E. coli” value was “soluble”.

As for “ASNITRINEIIEIAVNNKRKVCLLGKSMDVNVNISRKIGLMDIDSNDIVEVRDIKNYPDRSILILCTGSQGEDSAALNTMARGKHNWVSLKSTDTIIMSSNPIPGNYAAVENLLNELSKYGVTIFENSPNMKLHASGHATQQELQLMLNLVFPRYLIPIHGEYKMMRTIKNIAQECGINGDDVGLLANGQVMYLIDGKLYYSGEVINADPIYIESRNSSPDLARVIKQRQILSREGMFAVIVVFDKNNNILGMPTLITRGCFFALDSSPLMTKITHSIKRGLENVIQNKRFNTREQMIKELKRVCKETVSYFIWKNKSRNPLISTVLSWV”, the “soluble on expression in E. coli” value is on record as “soluble”. On to “ASVRVVQKNLVFVVGLSQRLADPEVLKRPEYFGKFGKIHKVVINNSTSYAGSQGPSASAYVTYIRSEDALRAIQCVNNVVVDGRTLKASLGTTKYCSY”, for which the “soluble on expression in E. coli” value is “soluble”. Take “ASWSHPQFEKGAMALTEAWLIEKANRKLNAGGMYKITSDKTRNVIKKMAKEGIYLCVAQGYRSTAEQNALYAQGRTKPGAIVTNAKGGQSNHNYGVAVDLCLYTNDGKDVIWESTTSRWKKVVAAMKAEGFKWGGDWKSFKDYPHFELCDAVSGEKIPAATQNTNTNSNRYEGKVIDSA”: the “soluble on expression in E. coli” value is on record as “soluble”.

For “ATDTGGYAATAGGNVTGAVSKTATSMQDIVNIIDAARLDANGKKVKGGAYPLVITYTGNEDSLINAAAANICGQWSKDPRGVEIKEFTKGITIIGANGSSANFGIWIKKSSDVVVQNMRIGYLPGGAKDGDMIRVDDSPNVWVDHNELFAANHECDGTPDNDTTFESAVDIKGASNTVTVSYNYIHGVKKVGLDGSSSSDTGRNITYHHNYYNDVNAKLPLQRGGLVHAYNNLYTNITGSGLNVRQNGQALIENNWFEKAINPVTSRYDGKNFGTWVLKGNNITKPADFSTYSITWTADTKPYVNADSWTSTGTFPTVAYNYSPVSAQCVKDKLPGYAGVGKNLATLTSTACK”, the “soluble on expression in E. coli” value is “soluble”. As for “ATEEEYQLFLEPYLQETRLGAYDFPLFSTIFKAFSKKGSFKSLIDPYCFGQALSNGRAITFVVTHDIPNNDVFLDLIMDEEDEWIAYAYILGRDGGVPLVYTDLDTSGIKNKNGKPRWKDAWNDPRMAKMIAFHNVTHGESMTVLEGNDDMLVLKRGEKGIVVLNKSTRAQSLSLKTECDWFDLMSDQSVKAGIELKVPAKSFMLLVQK”, the entry is “not soluble”; as for “AVKRRPRFPVNSNSNGGNELCPKIRIGQDDLPGFDLISQFQVDKAASRRAIQRVVGSATLQVAYKLGNNVDFRIPTRNLYPSGLPEEYSFLTTFRMTGSTLKKNWNIWQIQDSSGKEQVGIKINGQTQSVVFSYKGLDGSLQTAAFSNLSSLFDSQWHKIMIGVERSSATLFVDCNRIESLPIKPRGPIDIDGFAVLGKLADNPQVSVPFELQWMLIHCDPLRPRRETCHELPARITPSQTTDER”, “soluble”. “AVNEENIMIPKGVEVYEITGPYFFGIATKFEETMAQLGDRPNVRIIRMRKVPFIDSTGIHNLTTLCEMSQKEKITVILSGVNEKVYKVLEKSGFYELLGKENICPNFKIALDRAEEVMK”: the “soluble on expression in E. coli” value was “soluble”. Turning to “AVRQLDRQGRDDVEVAVLAPQPELRIRPRFYEPDVQRMAAPLGELFAAVGVRFVQGSAQRIDVAGKRVEYRDAEGTLAQLDYDRLVLAAGSGVWRPASVAGIDAAFDVDQLEDALRLEAHLHALRDLPDSPARNTVVVAGGGFTGIETATEMPARLRAILGEKAALRVIVVDRGAAIGASMGADLSGLIAEASAELGVEWCLGRSVAAVDAEGVTLDDGQRIEAKTVVWTVGVRASTLTGQIPGERDAQGRLHVDRNLKVLGLDDVYATGDVARAATDDLGNHALMTCQHAIALGRSAGNNVAADLLGVEPIPYSQVKYVTCLDLGGWGAVFTEGWDRQVRFVREEGKKIKTEINGVWIYPPAADRAVALAAADPLIPVVA”, the “soluble on expression in E. coli” value is on record as “not soluble”.

Take “AVSFTGVSGVKNIVAVTACPTGVAHTFMSAEAIEAYAKKQGWNVKVETRGQVGAGNEITVEEVAAADLVFVAADIDVPLDKFKGKPMYRTSTGLALKKTEQEFDKAFKEAKIF”: the “soluble on expression in E. coli” value was “not soluble”.

On to “AWVDQTPRTITKETGESLTIKCVLKDHSCGLSSTTWYRTQLGSTNEKTISIGGRYDETVDKGSKSFSLRISDLRVEDSGTYKCQADYSPSCYSYPSLESAVEGAGTVLTVK”, for which the “soluble on expression in E. coli” value is listed as “soluble”. With “CGVFGIWGHEEAPQITYYGLHSLQHRGQEGAGIVATDGEKLTAHKGQGLITEVFQNGELSKVKGKGAIGHVRYATAGGGGYENVQPLLFRSQNNGSLALAHNGNLVNATQLKQQLENQGSIFQTSSDTEVLAHLIKRSGHFTLKDQIKNSLSMLKGAYAFLIMTETEMIVALDPNGLRPLSIGMMGDAYVVASETCAFDVVGATYLREVEPGEMLIINDEGMKSERFSMNINRSICSMEYIYFSRPDSNIDGINVHSARKNLGKMLAQESAVEADVVTGVPDSSISAAIGYAEATGIPYELGLIKNRYVGRTFIQPSQALREQGVRMKLSAVRGVVEGKRVVMVDDSIVRGTTSRRIVTMLREAGATEVHVKISSPPIAHPCFYGIDTSTHEELIASSHSVEEIRQEIGADTLSFLSVEGLLKGIGRKYDDSNCGQCLACFTGKYPTEIYQDTVLPHVK”, the “soluble on expression in E. coli” value is reported as “soluble”.

Consider “CISMSKIAVVINPIAGGGRGKKVWKVLKPGLHALFEQTVYRISNRVNDLEAITDGLLAENPDSLLIIGGDGTLNHVLNGLIEKDKLKNPQTKIAFFNAGCGGDFTRQFPQQKMTEFLDRLSHNQFIKCDIGKITLAN”, for which the “soluble on expression in E. coli” value is listed as “not soluble”. Consider “DADPTFDFIGYLETLPQTSGMYMGNASIIPRNYRKYLYHAYLAYMEANGYRNVLSLKMFGLGLPVMLKEYGLNYEKRHTKQGIQTNLTLKEESYGDWLPK”, for which the “soluble on expression in E. coli” value was “soluble”. As for “DAPAGGNAFEEMEKHAKEFQKTFSEQFNSLVNSKNTQDFNKALKDGSDSVLQQLSAFSSSLQGAISDANGKAKEALEQARQNVEKTAEELRKAHPDVEKEANAFKDKLQAAVQTTVQESQKLAKEVASNMEETNKKLAPKIKQAYDDFVKHAEEVQKKLHEAATKQ”, the entry is “soluble”; as for “DAPLPHLRFALASCANWEAGFFAAYGDIARRADAGELEMLIFLGDYIYEYATGMFAGKDGVVRPHQPLHETITLEHYRTRYGHYRSDNHLQAAHAALPWIVMWDDHESANNSNREGAQNHSADEGSWVDRQNAARQVFLEWMPIRQEDTLYRSFTFGDLATLSLLDLRSFRDPAPSQQQWLEGQRADTMMGSQQFEWLKSNVEHTTTTWNIIGSSVMFAPMAITGQPLFQIPEPIPANLDQWDGYSRERDRLLAVLADFATPTLFLSGDIH”, “not soluble”. For “DEDDSADNIHAVSSERWRIHAATEIEDINTFFGTEYSSEEADTIGGLVIQELGHLPVRGEKVLIGGLQFTVARADNRRLHTLMATRVK”, the “soluble on expression in E. coli” value is reported as “soluble”. Under “DFGKAMYIDNPRDHAVKHFSKVYQCQSADDVQAVKKKLYDDKTAIIEKVAEQTKSFDVASTQVSGRSLKGSIDVPTLPALPQPETRQGAPKLSVLISSAQEAMLCEYQDIDVYYQLPMGLSGELSAMIELFQANPMLKPWFPAILIGEDYQAARVFLETIQPELLITNNSGVGMITKELGLGWVAGPQMNTVNSYAFKCLQDEFAASGAFVSNELNMKQMRHIKRPKNMRSFYSIYHPNTLLTSRQCLFQQTEGCRKVKVNKGCLKRCDKRTSIINLKDNPYVVQKQKGSHNSIYSEHNVLNLQVLHDLPQLFTDVLIDLRDIQTETKVSASKPELIDAFLALLEDHSEQAIQTLNAMIQPTANAQYLKGL” stands “not soluble”. As for “DGDQCETSPCQNQGKCKDGLGEYTCTCLEGFEGKNCELFTRKLCSLDNGDCDQFCHEEQNSVVCSCARGYTLADNGKACIPTGPYPCGKQTLERRKRSVAQATSSSGEAPDSITWKPYDAADLDPTENPFDLLDFNQTQPERGDNNLTR”, the entry is “soluble”; as for DGGTMENLSRRLKVTGDLFDIMSGQT, “soluble”; as for “DHPFTSAPTFGDFGSNQQAMPLYRVEPVYPSRALKRGVEGFVTLSFTIDTTGKAVDINVVDANPKRMFEREAMQALKKWKYQPQIVDGKAIEQPGQTVTVEFKIAK”, “soluble”. As for “DIELTQTPVSLAASLGDRVTISCRASQDINNFLNWYQQKPDGTIKLLIYYTSRLHAGVPSRFSGSGSGTDYSLTISNLEPEDIATYFCQHHIKFPWTFGAGTKLEIK”, the entry is “soluble”; as for “DIHQEMDREELELEEVDLYRMNSQDKLGLTVCYRTDDEDDIGIYISEIDPNSIAAKDGRIREGDRIIQINGIEVQNREEAVALLTSEENKNFSLLIARPELQLDEGWMDDD”, “soluble”. Turning to “DKSYRSTKEIMEYANRFLNDTSIIPMVRSGEKVQSLSISSEDEFVDRVTYAIDDMKKEGIETIGVICENMHDTKYFGELLKSKKYINIIEKENQIYTGGETVMPSYFAKGLEFDGVILVSRENKENKDRVLYVMATRALHKLYDFHIEF”, the “soluble on expression in E. coli” value is on record as “not soluble”. Regarding “DKVTQSSPDQTVASGSEVVLLCTYDTVYSNPDLFWYRIRPDYSFQFVFYGDDSRSEGADFTQGRFSVKHILTQKAFHLVISPVRTEDSATYYCAFTLPPPTDKLIFGKGTRVTVEP”, the “soluble on expression in E. coli” value is “soluble”. Under DLDLEMLAPYIPMDDDFQLR stands “soluble”; under “DLPGVVIFLHGVNDPGASYESVETGLCQGVNERLDRPDLVPGRYGGKYKEAGNVPYEKRDSDQKVILDDPDTYLYRRDASDPKTHSLLIPFYWGHRAAPDQIKRDDAGDPFRMRNQFQDINGNRLDRHFAKAGGFIANATNNIPDVYGEGFRPNLKSIALETFKPDNALYFGHSPARHYCVLAAHRLAMLIREIRRVSPDETITIMGHSQGTIVTLLAQALLVDGGDRCADTFIMVDTPYCVLPGNTPKDQDTFSTLVGIVTAITNMPHTQPAMSELRDAKTYCGRSGSRWLPTQGIRKNKVGSMTVFPERDNRGKVYLYFCPDDTTVSLDDVQ”, “not soluble”.

Regarding “DLVASGATLPEIQKRGYLTVAVKDNLRPLGFRDDKGNLQGLEIDLAKRLANDLLGKPDAVKFQPVANSDRLPVIVENKIDLAIANVTATESRSRIVSFSVPYYYDGAAIVTKDTSINQLEDLYRRKIAVLNNSSTIFYVKYFIPKSELIGVSSYAQAQEKIESNAVDAFAADNSLLSGWVQEYPKYHILPSQLSTEPLSVVMAKGLQYDEFRRSVNEAIARYIATGWLKESTQHWGLGNSQEKTLTTDR”, the “soluble on expression in E. coli” value is given as “not soluble”. For the sequence “DNDSAPKEPTGPVTLIFTDIESSTALWAAHPDLMPDAVATHHRLIRSLITRYECYEVKTVGDSFMIASKSPFAAVQLAQELQLCFLRLDWETNAVDESYREFEEQRAEGECEYTPPTASLDPEVYSRLWNGLRVRVGIHTGLCDIRYDEVTKGYDYYGRTSNMAARTESVANGGQVLMTHAAYMSLSGEDRNQLDVTTLGATVLRGVPEPVRMYQLNAVPGRNFAALRLDR”, the “soluble on expression in E. coli” value was “soluble”.

Regarding “DPSEPGHADHLTAVMADAQPAIVLTNNASAAAVRRFFSALPGAQRPRIISIDSLPDTLAQSYQIPTPSMAAAAINPVDLPAFLQYTSGSTRTPAGVVLTNRSIVTNVLQIFAAAQLKTPLRLVSWLPL”, the “soluble on expression in E. coli” value is “not soluble”.
